Key:
Assay in all cases: cell-based or functional assay
[1] = molecular target: HIV-1 Env of 6101.10.SG3 pseudovirus (clade B) (HIV-1)
[2] = molecular target: HIV-1 Env of ZM106.9.SG3 pseudovirus (clade C) (HIV-1)
[3] = molecular target: HIV-1 Env of 6095.V1.C10.SG3 pseudovirus (clade ACD) (HIV-1)
[4] = molecular target: HIV-1 Env of CNE31.SG3 pseudovirus (clade C) (HIV-1)
[5] = molecular target: HIV-1 Env of YU2.DG.SG3 pseudovirus (clade B) (HIV-1) (UniProt P35961)
[6] = molecular target: HIV-1 Env of PVO.04.SG3 pseudovirus (clade B) (HIV-1)
[7] = molecular target: HIV-1 Env of ZM215.8.SG3 pseudovirus (clade C) (HIV-1)
[8] = molecular target: HIV-1 Env of KER2008.12.SG3 pseudovirus (clade A) (HIV-1)
[9] = molecular target: HIV-1 Env of TH966.8.SG3 pseudovirus (clade AE) (HIV-1)

Sequence of 10E8v4 S100cY (antibody) (VH): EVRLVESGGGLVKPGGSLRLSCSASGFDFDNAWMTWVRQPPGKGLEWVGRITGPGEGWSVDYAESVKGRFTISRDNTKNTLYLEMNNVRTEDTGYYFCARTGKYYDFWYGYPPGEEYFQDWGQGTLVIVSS
Sequence of 10E8v4 S100cY (antibody) (VL): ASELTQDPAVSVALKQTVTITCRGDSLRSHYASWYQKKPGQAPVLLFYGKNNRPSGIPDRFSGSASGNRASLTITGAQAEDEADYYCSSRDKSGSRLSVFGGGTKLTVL
Sequence of 10E8v4 S100cR (antibody) (VH): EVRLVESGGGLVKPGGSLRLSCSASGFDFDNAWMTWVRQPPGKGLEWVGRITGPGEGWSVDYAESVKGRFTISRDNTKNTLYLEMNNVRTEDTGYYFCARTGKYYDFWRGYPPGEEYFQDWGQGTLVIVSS
Sequence of 10E8v4 S100cR (antibody) (VL): as the sequence (VL) above
Sequence of 10E8v4 S100cF (antibody) (VH): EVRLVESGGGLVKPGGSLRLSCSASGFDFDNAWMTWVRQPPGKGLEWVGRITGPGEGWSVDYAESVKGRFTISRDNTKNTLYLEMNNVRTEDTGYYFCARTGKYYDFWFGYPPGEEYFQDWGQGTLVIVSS
Sequence of 10E8v4 S100cF (antibody) (VL): as the sequence (VL) above

| Substance | IC50, pseudovirus neutralization [1] | IC80, pseudovirus neutralization [1] | IC50, pseudovirus neutralization [2] | IC80, pseudovirus neutralization [2] | IC50, pseudovirus neutralization [3] | IC80, pseudovirus neutralization [3] | IC50, pseudovirus neutralization [4] | IC80, pseudovirus neutralization [4] | IC50, pseudovirus neutralization [5] | IC80, pseudovirus neutralization [5] | IC50, pseudovirus neutralization [6] | IC80, pseudovirus neutralization [6] | IC50, pseudovirus neutralization [7] | IC80, pseudovirus neutralization [7] | IC50, pseudovirus neutralization [8] | IC80, pseudovirus neutralization [8] | IC50, pseudovirus neutralization [9] | IC80, pseudovirus neutralization [9] |
| --- | --- | --- | --- | --- | --- | --- | --- | --- | --- | --- | --- | --- | --- | --- | --- | --- | --- | --- |
| 10E8v4 S100cR (antibody) | 0.176 µg/mL | 0.891 µg/mL | > 50 µg/mL | > 50 µg/mL | 0.011 µg/mL | 0.048 µg/mL | 2.54 µg/mL | 8.42 µg/mL | 3.87 µg/mL | 12 µg/mL | 6.45 µg/mL | 25 µg/mL | 0.363 µg/mL | 1.34 µg/mL | > 50 µg/mL | > 50 µg/mL | 0.168 µg/mL | 0.648 µg/mL |
| 10E8v4 S100cY (antibody) | 0.009 µg/mL | 0.063 µg/mL | > 50 µg/mL | > 50 µg/mL | 0.001 µg/mL | 0.006 µg/mL | 0.368 µg/mL | 1.39 µg/mL | 0.376 µg/mL | 2.25 µg/mL | 0.412 µg/mL | 3.44 µg/mL | 0.028 µg/mL | 0.129 µg/mL | > 50 µg/mL | > 50 µg/mL | 0.011 µg/mL | 0.075 µg/mL |
| 10E8v4 S100cF (antibody) | 0.001 µg/mL | 0.008 µg/mL | > 50 µg/mL | > 50 µg/mL | 0.001 µg/mL | 0.001 µg/mL | 0.097 µg/mL | 0.306 µg/mL | 0.073 µg/mL | 0.482 µg/mL | 0.147 µg/mL | 0.696 µg/mL | 0.003 µg/mL | 0.02 µg/mL | > 50 µg/mL | > 50 µg/mL | 0.002 µg/mL | 0.017 µg/mL |

From US20190077849A1
